Source: PMC10572825 (2023)

Biological target: Tenascin-C (Mus musculus, UniProt Q80YX1, FITC-labelled tenascin-C)
Assay: isothermal fluorescence titration

- Kd: 270 nM
B1: CCL26 (protein)
chain: TRGSDISKTCCFQYSHKPLPWTWVRSYEFTSNSCSQRAVIFTTKRGKKVCTHPRKKWVQKYISLLKTPKQL
